Experiment [1] addresses Jurkat-hTIGIT-NFAT-CD226细胞上过表达的人TIGIT (human). The experiment can be described thus: cell-based or functional assay.
The target in experiment [2] is T1, 表达于CHOK1细胞表面的人TIGIT (CHOK1/人TIGIT细胞, 吉满生物 GM-C01116) (human, UniProt Q495A1 22-244).
T1 construct: whole, on cells; Purchased cell line; also called CHOK1/hTIGIT
T1 sequence (looked up): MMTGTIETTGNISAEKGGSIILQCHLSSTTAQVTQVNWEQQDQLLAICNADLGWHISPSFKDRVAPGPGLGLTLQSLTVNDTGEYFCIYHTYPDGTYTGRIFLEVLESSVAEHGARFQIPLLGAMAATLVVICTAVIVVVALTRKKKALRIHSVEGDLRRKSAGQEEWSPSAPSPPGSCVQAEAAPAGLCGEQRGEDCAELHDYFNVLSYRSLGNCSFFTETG
Nature of the experiment: flow cytometry competition, inhibition of Biotinylated-CD155 (0.6μg/ml) binding to CHOK1/human TIGIT cells.

The target of experiment [3] is Jurkat-hTIGIT-NFAT-CD226细胞上过表达的人TIGIT (human). The experiment can be described thus: cell-based or functional assay. The source holds these as a separate data set.
For experiment [4], the target named is T1, 表达于CHOK1细胞表面的人TIGIT (CHOK1/人TIGIT细胞, …). The experiment can be described thus: flow cytometry competition, EC50 of % inhibition of Biotinylated-CD155 (0.6μg/ml) binding to CHOK1/hTIGIT cells. (A flow cytometer gives signals particle by particle.)
Experiment [5] shares this target. Nature of the experiment: flow cytometry competition, EC50 of % inhibition of Biotinylated-CD155 (0.6μg/ml) binding to CHOK1/human TIGIT cells.
Experiment [6] has the same target. Nature of the experiment: flow cytometry on CHOK1/hTIGIT cells, EC50 of MFI.
Experiment [7] has the same target. The experiment can be described thus: flow cytometry competition, inhibition of Biotinylated-CD155 (0.6μg/ml) binding to CHOK1/hTIGIT cells.
For experiment [8] the target is unchanged. The experiment can be described thus: flow cytometry on CHOK1/hTIGIT cells.
Experiment [9] concerns the target T2, SPH-B011-A-Antigen-his蛋白 (人TIGIT) (human, UniProt Q495A1 22-141, limits assumed).
T2 construct: Analyte of the Biacore assay; also called 抗原(人TIGIT); not shown: his tag
T2 sequence (looked up): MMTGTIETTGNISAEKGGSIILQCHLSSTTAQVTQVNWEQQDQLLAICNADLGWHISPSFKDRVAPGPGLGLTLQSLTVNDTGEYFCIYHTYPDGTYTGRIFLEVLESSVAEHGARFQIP
The experiment can be described thus: Biacore, antibody captured on anti-Fc CM5 chip, human TIGIT-his 100nM as analyte, 25℃. A general note: Surface plasmon resonance follows binding to a sensor surface in real time, without labels.

Where two headings read alike, the source gives them in different places.

Usually EC50 stands for the concentration that produces a half-maximal response. The Kd is the concentration at which binding is half-saturated. The low end stands for tighter binding, the high end for weaker binding. What is called koff is the rate constant with which the complex falls apart. Low readings indicate slow dissociation, high ones fast dissociation. For orientation: kon means the second-order rate constant of association.

Jurkat-hTIGIT-NFAT-CD226细胞上过表达的人TIGIT (human), sequence (Q495A1 whole entry): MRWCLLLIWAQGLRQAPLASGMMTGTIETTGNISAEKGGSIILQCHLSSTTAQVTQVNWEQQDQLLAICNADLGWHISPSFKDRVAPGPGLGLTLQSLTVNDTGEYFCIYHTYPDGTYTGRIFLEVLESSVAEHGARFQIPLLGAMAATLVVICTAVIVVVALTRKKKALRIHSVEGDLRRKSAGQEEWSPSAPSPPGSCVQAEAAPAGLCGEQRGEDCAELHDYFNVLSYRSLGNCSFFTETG

B1: 阳性对照抗体P4 (antibody, human IgG1, kappa, V domains shown)
VH: EVQLQQSGPGLVKPSQTLSLTCAISGDSVSSNSAAWNWIRQSPSRGLEWLGKTYYRFKWYSDYAVSVKGRITINPDTSKNQFSLQLNSVTPEDTAVFYCTRESTTYDLLAGPFDYWGQGTLVTVSS
VL: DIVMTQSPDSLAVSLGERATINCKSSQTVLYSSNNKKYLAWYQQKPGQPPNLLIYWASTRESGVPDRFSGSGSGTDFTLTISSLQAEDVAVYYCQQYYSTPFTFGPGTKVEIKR
notes: Positive control anti-TIGIT antibody
Regarding B1, the “EC50(μg/ml)of RLU” value amounted to 0.534 µg/mL in [1] and 0.357 µg/mL in experiment [3]. This molecule returned a 最大RLU in [1] of 8840 RLU. In addition, the 最大抑制 in experiment [2] and in [7] was 100% throughout. Also, the “Max RLU” value in experiment [3] turned out to be 9610 RLU. Further, the EC50 turned out to be 0.309 mg/L in [4], 0.103 mg/L in [5] and 0.214 mg/L in experiment [6]. This molecule also came in with a 最大MFI in [8] of 10300 MFI.

B2: 人源化抗TIGIT抗体A2 (antibody, human IgG1, kappa, V domains shown)
VH: QLQLVQSGAEVKKPGASVKVSCKASGYSFTDYNMNWVRQAPGQSLEWIGVINPNHGTISYNQKFKGRVTMTRDQSTSTAYMELNSLRSEDTAVYYCANNWDVWYFDVWGQGTLVTVSS
VL: DIQMTQSPSSLSASVGDRVTITCRPSENIYSYLAWYQQKPGKAPKLLVYNAKALAEGVPSRFSGSGSGTDFTLTISSLQPEDFATYYCQHHFGAPWTFGQGTKVEIKR
notes: Humanized
As to B2, in [3], the “EC50(μg/ml)of RLU” value is 1.01 µg/mL and the “Max RLU” value came out at 9210 RLU. The molecule further had an EC50 in [4] of 0.406 mg/L. Also, the EC50 in experiment [6] is 0.312 mg/L. The 最大抑制 in experiment [7] was 99.6%. The 最大MFI in experiment [8] came to 10600 MFI. In experiment [9], this molecule returned a Kd of 4.3 nM, a koff of 0.00241 s⁻¹ and a kon of 560000 M⁻¹ s⁻¹.

B3: 人源化抗TIGIT抗体A4 (antibody, human IgG1, kappa, V domains shown)
VH: QLQLVQSGAEVKKPGASVKVSCKASGYSFTDYNMNWVRQAPGQSLEWIGVINPNHGTISYNQKFKGRVTMTRDQSTSTAYMELNSLRSEDTAVYYCANNWDVWYFDVWGQGTLVTVSS
VL: DIQMTQSPSSLSASVGDRVTITCRPSENIYSYLAWYQQKPGNSPKLLVYNAKALAEGVPSRFSGSGSGTQFTLTISSLQPEDFATYYCQHHFGAPWTFGGGTKVEIKR
notes: Humanized
Consider B3, for which, in experiment [3], the “EC50(μg/ml)of RLU” value worked out at 0.847 µg/mL and the “Max RLU” value worked out at 8810 RLU. This molecule yielded an EC50 in [4] of 0.27 mg/L. In [6], this molecule gave an EC50 of 0.496 mg/L. The 最大抑制 in experiment [7] was 99.5%. This molecule also yielded a 最大MFI in [8] of 10100 MFI. In experiment [9], this molecule had a Kd of 4.85 nM, a koff of 0.00257 s⁻¹ and a kon of 529000 M⁻¹ s⁻¹.

B4: 人源化抗TIGIT抗体A1 (antibody, human IgG1, kappa, V domains shown)
VH: QLQLVQSGAEVKKPGASVKVSCKASGYSFTDYNMNWVRQAPGQSLEWIGVINPNHGTISYNQKFKGRVTMTRDQSTSTAYMELNSLRSEDTAVYYCANNWDVWYFDVWGQGTLVTVSS
VL: DIQMTQSPSSLSASVGDRVTITCRPSENIYSYLAWYQQKPGKAPKLLIYNAKALAEGVPSRFSGSGSGTDFTLTISSLQPEDFATYYCQHHFGAPWTFGQGTKVEIKR
notes: Humanized
Take B4: in [3], the “EC50(μg/ml)of RLU” value came to 1.18 µg/mL and the “Max RLU” value amounted to 8950 RLU. In addition, in experiment [4], the EC50 worked out at 0.43 mg/L. Further, the half-maximal effective concentration (EC50) in [6] turned out to be 0.36 mg/L. This molecule had a 最大抑制 in experiment [7] of 99.3%. In addition, in experiment [8], the 最大MFI is 10800 MFI. In [9], binding was characterised by a dissociation constant (Kd) of 4.62 nM, the koff came to 0.00251 s⁻¹ and the kon came out at 544000 M⁻¹ s⁻¹.

B5: 人源化抗TIGIT抗体A3 (antibody, human IgG1, kappa, V domains shown)
VH: QLQLVQSGAEVKKPGASVKVSCKASGYSFTDYNMNWVRQAPGQSLEWIGVINPNHGTISYNQKFKGRVTMTRDQSTSTAYMELNSLRSEDTAVYYCANNWDVWYFDVWGQGTLVTVSS
VL: DIQMTQSPSSLSASVGDRVTITCRPSENIYSYLAWYQQKPGNAPKLLVYNAKALAEGVPSRFSGSGSGTQFTLTISSLQPEDFATYYCQHHFGAPWTFGQGTKVEIKR
notes: Humanized
B5: in experiment [3], the “EC50(μg/ml)of RLU” value was 0.782 µg/mL and the “Max RLU” value came to 9370 RLU. In experiment [4], a half-maximal response (EC50) required 0.427 mg/L. In experiment [6], this molecule had an EC50 of 0.329 mg/L. Also, in experiment [7], the 最大抑制 was determined as 99.6%. In experiment [8], this molecule registered a 最大MFI of 10200 MFI. Besides, in experiment [9], the Kd is 4.66 nM, the koff stood at 0.00225 s⁻¹ and the kon stood at 483000 M⁻¹ s⁻¹.

B6: 阳性对照抗体P1 (antibody, human IgG1, kappa, V domains shown)
VH: QVQLQESGPGLVKPSETLSLTCTVSGGSVSSGIYYWSWIRQPPGKGLEWIGYIYYSGSTNYNPSLKSRVTISVDTSKNQFSLKLSSVTAADTAVYYCARDYYVSGNYYNVDYYFFGVDVWGQGTTVTVSS
VL: EIVLTQSPATLSLSPGERATLSCRASQSVSSYLAWYQQKPGQAPRLLIYDASNRATGIPARFSGSGSGTDFTLTISSLEPEDFAVYYCQQRSNWPPLFTFGPGTKVDIKR
notes: as for B1
As for B6, the entries for the “EC50(μg/ml)of RLU” value in experiment [1] and in experiment [3] were 0.633 µg/mL and 0.305 µg/mL, respectively. In experiment [1], this molecule registered a 最大RLU of 9080 RLU. The 最大抑制 in experiment [2] stood at 99.7%; in experiment [7], 100%. Besides, the “Max RLU” value in [3] is 10500 RLU. The EC50 in experiment [4] was 0.306 mg/L; in [5] it was 0.189 mg/L; in experiment [6], 0.264 mg/L. In addition, the 最大MFI in experiment [8] was 13500 MFI.

B7: 嵌合抗TIGIT抗体A0 (antibody, human IgG1, kappa, V domains shown)
VH: ELQLQQSGPELVKPGASVKISCKASGYSFTDYNMNWVKQSNGKSLEWIGVINPNHGTISYNQKFKGKATLTVDQSSSTAYMQLNSLTSEDSAVYYCANNWDVWYFDVWGTGTTVTVSS
VL: DIQMTQSPASLSASVGETVTITCRPSENIYSYLAWYRQKQGNSPQLLVYNAKALAEGVPSRFSGSGSGTQFSLKINSLQPEDFGSYYCQHHFGAPWTFGGGTKLEIKR
notes: also called B011-A-142E4C5
Consider B7, for which the “EC50(μg/ml)of RLU” value came out at 0.922 µg/mL in [1] and 1.32 µg/mL in [3]. The same molecule registered a 最大RLU in experiment [1] of 8260 RLU. For the same molecule, the figures for the 最大抑制 in experiment [2] and in experiment [7] were 99.8% and 99.2%, respectively. Moreover, the “Max RLU” value in experiment [3] came out at 9270 RLU. The EC50 in experiment [4] was 0.384 mg/L; in [5], 0.138 mg/L; in experiment [6], around 0.139 mg/L. The molecule further showed a 最大MFI in [8] of 9890 MFI.
